This test has as its target PD-1 antigen with murine Fc tags (human) (UniProt Q15116). In words: SPR (Biacore T200), PD-1-mFc captured by anti-mouse Fc antibody, 100 nM antibody injected. A general note: Surface plasmon resonance follows binding to a sensor surface in real time, without labels.

PD-1 antigen with murine Fc tags (human), sequence (Q15116 25-167 limits assumed): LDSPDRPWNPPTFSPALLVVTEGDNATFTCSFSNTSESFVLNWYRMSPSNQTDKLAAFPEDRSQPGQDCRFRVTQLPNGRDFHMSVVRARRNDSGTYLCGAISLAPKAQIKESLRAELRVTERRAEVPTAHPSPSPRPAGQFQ

B1: JS001 (recombinant humanized anti-PD-1 monoclonal antibody reference article, Toripalimab) (antibody, human IgG4 S228P, kappa, V domains shown)
VH: QGQLVQSGAEVKKPGASVKVSCKASGYTFTDYEMHWVRQAPIHGLEWIGVIESETGGTAYNQKFKGRVTITADKSTSTAYMELSSLRSEDTAVYYCAREGITTVATTYYWYFDVWGQGTTVTVSS
VL: DVVMTQSPLSLPVTLGQPASISCRSSQSIVHSNGNTYLEWYLQKPGQSPQLLIYKVSNRFSGVPDRFSGSGSGTDFTLKISRVEAEDVGVYYCFQGSHVPLTFGQGTKLEIKR
In turn, B1 had a Bound antibody signal (RU) of 128 RU.
